In patent US20210147525A1 (University of California, published 2021):

Target: T1, Biotin-HSA (human, UniProt P02768, biotinylated (sites and number not given))
T1 construct: biotinylated, without the compound; not further described; also called biotinylated-HSA; biotinylated human albumin
Test: binding of biotinylated HSA without compound to transfected HEK293 cells, detected with avidin-alkaline phosphatase

T1 sequence (P02768 25-609 limits assumed): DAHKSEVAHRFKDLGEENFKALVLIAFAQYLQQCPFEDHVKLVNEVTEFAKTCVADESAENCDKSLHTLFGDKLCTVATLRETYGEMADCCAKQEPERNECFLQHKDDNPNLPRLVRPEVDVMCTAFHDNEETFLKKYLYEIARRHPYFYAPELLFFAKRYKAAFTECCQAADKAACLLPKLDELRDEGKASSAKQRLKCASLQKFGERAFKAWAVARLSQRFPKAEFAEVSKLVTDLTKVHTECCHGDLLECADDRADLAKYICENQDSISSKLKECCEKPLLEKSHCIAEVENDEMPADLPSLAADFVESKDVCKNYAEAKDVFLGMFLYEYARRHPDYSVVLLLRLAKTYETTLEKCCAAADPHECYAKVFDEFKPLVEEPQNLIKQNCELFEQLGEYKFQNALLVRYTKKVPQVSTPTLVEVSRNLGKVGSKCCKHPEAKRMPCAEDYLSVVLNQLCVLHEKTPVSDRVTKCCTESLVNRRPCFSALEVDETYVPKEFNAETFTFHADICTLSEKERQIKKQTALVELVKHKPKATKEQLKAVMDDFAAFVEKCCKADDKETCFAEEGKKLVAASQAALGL

binding result: no binding
B1: R-PLXDC1 (full length human PLXDC1 with an epitope tag at the N-terminus, on transfected cells) (receptor, not shown: small tags and cut ends)
chain: LSPQPGAGHDEGPGSGWAAKGTVRGWNRRARESPGHVSEPDRTQLSQDLGGGTLAMDTLPDNRTRVVEDNHSYYVSRLYGPSEPHSRELWVDVAEANRSQVKIHTILSNTHRQASRVVLSFDFPFYGHPLRQITIATGGFIFMGDVIHRMLTATQYVAPLMANFNPGYSDNSTVVYFDNGTVFVVQWDHVYLQGWEDKGSFTFQAALHHDGRIVFAYKEIPMSVPEISSSQHPVKTGLSDAFMILNPSPDVPESRRRSIFEYHRIELDPSKVTSMSAVEFTPLPTCLQHRSCDACMSSDLTFNCSWCHVLQRCSSGFDRYRQEWMDYGCAQEAEGRMCEDFQDEDHDSASPDTSFSPYDGDLTTTSSSLFIDSLTTEDDTKLNPYAGGDGLQNNLSPKTKGTPVHLGTIVGIVLAVLLVAAIILAGIYINGHPTSNAALFFIERRPHHWPAMKFRSHPDHSTYAEVEPSGHEKEGFMEAEQC
notes: also called TEM7
